Bridge positions count the residues as written; N and C are the ends. Ends that are not written are not given here.
These molecules were tested against amylin receptor (membrane-bound, rat basal forebrain membranes containing the nucleus accumbens and surrounding regions) (rat) (assay: competition with ^125I Bolton-Hunter amylin on rat basal forebrain membranes, filtration).

IC50 [nM] | Molecule
0.033 | ^1Ser-h-Amylin (peptide)
0.015 | ^28Pro-h-Amylin (peptide)
0.148 | ^1Ala-h-Amylin (peptide)
0.064 | ^29Pro-h-Amylin (peptide)
0.026 | KCNTATCATQRLANFLVHSSNNFGPILPSTNVGSNTY [^25,28Pro-h-Amylin]
0.31 | KDNTATKATQRLANFLVHSSNNFGAILSSTNVGSNTY (lactam 2-7; ends not checked) [^2,7Cyclo-[^2Asp,^7Lys]-h-Amylin]
0.032 | KCNTATCATQRLANFLVRSSNNFGPILPSTNVGSNTY [^18Arg^25,28Pro-h-Amylin]
0.018 | KCNTATCATQRLANFLVHSSNNFGPVLPPTNVGSNTY [^25Pro^26Val^28,29Pro-h-Amylin]
0.021 | KCNTATCATQRLANFLVRSSNNFGPILPPTNVGSNTY [^18Arg^25,28,29Pro-h-Amylin]
0.01 | KCNTATCATQRLANFLVHSSNNFGPILPPTNVGSNTY-NH2 (disulfide 2-7) [^25,28,29Pro-h-Amylin]
0.085 | CNTATCATQRLANFLVHSSNNFGPILPSTNVGSNTY [des-^1Lys^25,28Pro-h-Amylin]
0.021 | CNTATCATQRLANFLVRSSNNFGPILPPTNVGSNTY [des-^1Lys^18Arg^25,28,29Pro-h-Amylin]
0.014 | CNTATCATQRLANFLVHSSNNFGPILPPTNVGSNTY [des-^1Lys^25,28,29Pro-h-Amylin]
0.082 | CNTATCATQRLANFLVRSSNNFGPILPSTNVGSNTY [des-^1Lys^18Arg^25,28Pro-h-Amylin]

From patent US20140066368A1
